Experiments:
YU2 gp120 [1] = biological target: T1, YU2 gp120 (HIV-1 (strain YU2), UniProt P35961); assay: ELISA
YU2 gp120 [2] = biological target: T1, YU2 gp120; assay: SPR

B1: VRC03 (antibody, V domains shown)
VH: QVQLVQSGAVIKTPGSSVKISCRASGYNFRDYSIHWVRLIPDKGFEWIGWIKPLWGAVSYARQLQGRVSMTRQLSQDPDDPDWGVAYMEFSGLTPADTAEYFCVRRGSCDYCGDFPWQYWGQGTVVVVSS
VL: EIVLTQSPGILSLSPGETATLFCKASQGGNAMTWYQKRRGQVPRLLIYDTSRRASGVPDRFVGSGSGTDFFLTINKLDREDFAVYYCQQFEFFGLGSELEVH
Question: Does B1 bind (YU2 gp120 [1])?
Answer: binds

Question: What about the Kd (YU2 gp120 [2]) of the same binder?
Answer: 73.1 nM

Source: paper PMC2965066 (Science (New York, N.Y.), 2010)
